How the values were obtained:
[1] = molecular target: T1, human Siglec-6 on the cell surface (U937, MEC1-002, MEC1-hS6, primary CLL cells) (human, UniProt O43699 27-453); experiment: flow cytometry titration on MEC1-hS6 cells, apparent Kd; scFv-Fc format, RC-1 clone
T1 construct: whole, on cells; Endogenous on U937, MEC1-002 and CLL cells; stably transfected in MEC1-hS6
Method: (§1) To determine whether T-biAb format affected the affinity to Siglec-6 or CD3 on the cell surface, T-biAbs were titrated and used to stain cells for flow cytometry (FIG. 17a).
(§2) Flow cytometry: Fabs were used to stain cells at a concentration of 2 μg/mL, unless otherwise noted. […] Samples were analyzed on either an Accuri C6 Plus or a LSRII flow cytometer (both from BD Biosciences).

[2] = molecular target: T1, human Siglec-6 on the cell surface …; experiment: cell-based or functional assay
CD3 on human T cells [3] = molecular target: T2, CD3 on human T cells (human, UniProt P07766 23-207); experiment: flow cytometry titration on primary human T cells
T2 construct: whole, on cells; CD3 is a complex; also called CD3+ cells
Method: as §1, §2

Siglec-6 VC28-235-His6 = molecular target: T3, Siglec-6 VC28-235-His6 (human, UniProt O43699 28-235); experiment: SPR, T-biAb immobilised via the Fc domain, soluble Siglec-6 (aa 28-235-His6) injected
T3 construct: It was deglycosylated with PNGase F for HDX-MS; also called soluble Siglec-6 (aa 28-235-His6); Siglec-6 ectodomain fragment
Method: Fab kinetics were determined by capturing Siglec-6-Fc (5-10 μg/mL) in HBS-EP+ buffer (Cytiva) and injecting titrated. […] Biacore evaluation software was used to calculate kₒₙ, koff, and Kd.

[4] = molecular target: T1, human Siglec-6 on the cell surface …; experiment: cell-based or functional assay; remark: listed apart in the source
CD3 on human T cells [5] = molecular target: T2, CD3 on human T cells; experiment: flow cytometry titration on primary human T cells, Alexa Fluor 647 anti-human Fc secondary antibody, percent biAb+ cells
Method: as §1, §2

T3 sequence (O43699 other isoform, or with tags, fused parts or gaps limits assumed): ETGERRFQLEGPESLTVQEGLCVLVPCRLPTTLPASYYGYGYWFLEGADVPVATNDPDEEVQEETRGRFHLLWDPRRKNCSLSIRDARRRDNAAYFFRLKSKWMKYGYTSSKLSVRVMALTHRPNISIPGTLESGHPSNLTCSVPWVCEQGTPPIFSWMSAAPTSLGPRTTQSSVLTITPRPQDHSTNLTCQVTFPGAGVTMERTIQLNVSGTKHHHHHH
T1 sequence (O43699 27-453): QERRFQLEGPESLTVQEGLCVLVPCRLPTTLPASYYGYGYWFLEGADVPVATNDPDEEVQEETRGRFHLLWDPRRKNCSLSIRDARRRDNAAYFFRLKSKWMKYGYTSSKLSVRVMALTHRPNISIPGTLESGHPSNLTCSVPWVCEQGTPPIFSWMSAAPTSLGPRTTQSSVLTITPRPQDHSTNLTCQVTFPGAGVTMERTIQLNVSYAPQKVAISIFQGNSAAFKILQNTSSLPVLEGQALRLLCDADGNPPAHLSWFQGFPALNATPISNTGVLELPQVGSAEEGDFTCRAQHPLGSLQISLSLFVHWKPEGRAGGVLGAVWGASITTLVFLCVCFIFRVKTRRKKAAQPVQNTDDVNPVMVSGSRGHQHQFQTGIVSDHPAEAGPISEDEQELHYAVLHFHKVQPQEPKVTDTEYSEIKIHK
T2 sequence (P07766 23-207): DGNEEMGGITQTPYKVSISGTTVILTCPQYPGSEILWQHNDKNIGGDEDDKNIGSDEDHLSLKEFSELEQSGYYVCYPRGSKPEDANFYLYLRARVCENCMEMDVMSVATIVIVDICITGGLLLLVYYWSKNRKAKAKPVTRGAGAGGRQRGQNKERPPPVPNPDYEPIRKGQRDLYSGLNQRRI

B1: RC-1/V9 scFv-Fc (bispecific antibody)
chain 1: not shown
chain 2: EVQLVESGGGLVQPGGSLRLSCAASGYSFTGYTMNWVRQAPGKGLEWVALINPYKGVSTYNQKFKDRFTISVDKSKNTAYLQMNSLRAEDTAVYYCARSGYYGDSDWYFDVWGQGTLVTVSSGGGGSGGGGSGGGGSDIQMTQSPSSLSASVGDRVTITCRASQDIRNYLNWYQQKPGKAPKLLIYYTSRLESGVPSRFSGSGSGTDYTLTISSLQPEDFATYYCQQGNTLPWTFGQGTKVEIKEPKSSDKTHTCPPCPAPELLGGPSVFLFPPKPKDTLMISRTPEVTCVVVDVSHEDPEVKFNWYVDGVEVHNAKTKPREEQYASTYRVVSVLTVLHQDWLNGKEYKCKVSNKALPAPIEKTISKAKGQPREPQVCTLPPSRDELTKNQVSLSCAVKGFYPSDIAVEWESNGQPENNYKTTPPVLDSDGSFFLVSKLTVDKSRWQQGNVFSCSVMHEALHNHYTQKSLSLSPGA
notes: Knobs-into-holes heterodimer of the RC-1 scFv-Fc knob arm and the shared anti-CD3 V9 scFv-Fc hole arm; also called RC-1 clone in scFv-Fc format
- Kd [1]: 1.1 nM
- EC50 (read off the curve), NFAT reporter activation with MEC1-002 cells [2]: ~0.1 nM
- fold more potent binding than the aDART-Fc (CD3 on human T cells [3]): ~2 fold
- Kd (Siglec-6 VC28-235-His6): 0.1 nM
- koff (Siglec-6 VC28-235-His6): 0.00031 s⁻¹
- kon (Siglec-6 VC28-235-His6): 3.05e+06 M⁻¹ s⁻¹
- specific lysis of MEC1-hS6 by healthy donor T cells, EC50 [4]: 0.003 nM
- specific lysis of primary CLL cells by autologous T cells, day 11, median [4]: 2.4%
- EC50 (read off the curve) (CD3 on human T cells [5]): ~0.05 nM

From patent US20250011422A1 (UNIVERSITY OF FLORIDA RESEARCH FOUNDATION, published 2025)
